± gives the uncertainty stated by the source.
B1: RUN and FYVE domain-containing protein 1, residues 639 to 698; numbered along this chain, Q96T51 (parent)
chain: WLKDDEATHCRQCEKEFSISRRKHHCRNCGHIFCNTCSSNELALPSYPKPVRVCDSCHTL

Variants of: B1
Assay: abundance fitness (aPCA) (normalised: wild type 0, dead -1); higher = more abundant; growth selection in yeast, the domain comes from the species named
Details: Homo sapiens

Question: Which abundance fitness does the source give for TLKDDEATHCRQCEKEFSISRRKHHCRNCGHIFCNTCSSNELALPSYPKPVRVCDSCHTL [W1T] here?
Answer: Its abundance fitness is -0.286 ± 0.19.

Question: Which abundance fitness does the source give for YLKDDEATHCRQCEKEFSISRRKHHCRNCGHIFCNTCSSNELALPSYPKPVRVCDSCHTL [W1Y] here?
Answer: Its abundance fitness is 0.311 ± 0.084.

Question: With NLKDDEATHCRQCEKEFSISRRKHHCRNCGHIFCNTCSSNELALPSYPKPVRVCDSCHTL [W1N] as the variant, how does the abundance fitness read?
Answer: Its abundance fitness is 0.251 ± 0.099.

Question: With ELKDDEATHCRQCEKEFSISRRKHHCRNCGHIFCNTCSSNELALPSYPKPVRVCDSCHTL [W1E] as the variant, how does the abundance fitness read?
Answer: The abundance fitness was -0.138 ± 0.1.

Question: With VLKDDEATHCRQCEKEFSISRRKHHCRNCGHIFCNTCSSNELALPSYPKPVRVCDSCHTL [W1V] as the variant, how does the abundance fitness read?
Answer: Its abundance fitness is -0.005 ± 0.055.

Question: For GLKDDEATHCRQCEKEFSISRRKHHCRNCGHIFCNTCSSNELALPSYPKPVRVCDSCHTL [W1G], which abundance fitness is on record?
Answer: Its abundance fitness is 0.131 ± 0.067.

Question: Which abundance fitness does the source give for DLKDDEATHCRQCEKEFSISRRKHHCRNCGHIFCNTCSSNELALPSYPKPVRVCDSCHTL [W1D] here?
Answer: Its abundance fitness is 0.445 ± 0.13.

Question: With ALKDDEATHCRQCEKEFSISRRKHHCRNCGHIFCNTCSSNELALPSYPKPVRVCDSCHTL [W1A] as the variant, how does the abundance fitness read?
Answer: Its abundance fitness is -0.014 ± 0.17.

Question: Which abundance fitness does the source give for CLKDDEATHCRQCEKEFSISRRKHHCRNCGHIFCNTCSSNELALPSYPKPVRVCDSCHTL [W1C] here?
Answer: The abundance fitness was 0.094 ± 0.075.

Question: Which abundance fitness does the source give for KLKDDEATHCRQCEKEFSISRRKHHCRNCGHIFCNTCSSNELALPSYPKPVRVCDSCHTL [W1K] here?
Answer: The abundance fitness was 0.249 ± 0.1.

Question: Which abundance fitness does the source give for RLKDDEATHCRQCEKEFSISRRKHHCRNCGHIFCNTCSSNELALPSYPKPVRVCDSCHTL [W1R] here?
Answer: The abundance fitness was -0.182 ± 0.077.

Question: Which abundance fitness does the source give for SLKDDEATHCRQCEKEFSISRRKHHCRNCGHIFCNTCSSNELALPSYPKPVRVCDSCHTL [W1S] here?
Answer: The abundance fitness was 0.121 ± 0.07.

Question: For WLIDDEATHCRQCEKEFSISRRKHHCRNCGHIFCNTCSSNELALPSYPKPVRVCDSCHTL [K3I], which abundance fitness is on record?
Answer: Its abundance fitness is -0.393 ± 0.09.

Question: For WLRDDEATHCRQCEKEFSISRRKHHCRNCGHIFCNTCSSNELALPSYPKPVRVCDSCHTL [K3R], which abundance fitness is on record?
Answer: Its abundance fitness is -0.618 ± 0.055.

Question: With WLVDDEATHCRQCEKEFSISRRKHHCRNCGHIFCNTCSSNELALPSYPKPVRVCDSCHTL [K3V] as the variant, how does the abundance fitness read?
Answer: The abundance fitness was -0.687 ± 0.06.

Question: For WLGDDEATHCRQCEKEFSISRRKHHCRNCGHIFCNTCSSNELALPSYPKPVRVCDSCHTL [K3G], which abundance fitness is on record?
Answer: Its abundance fitness is -0.515 ± 0.051.

Question: With WLDDDEATHCRQCEKEFSISRRKHHCRNCGHIFCNTCSSNELALPSYPKPVRVCDSCHTL [K3D] as the variant, how does the abundance fitness read?
Answer: Its abundance fitness is -0.539 ± 0.097.

Question: For WLHDDEATHCRQCEKEFSISRRKHHCRNCGHIFCNTCSSNELALPSYPKPVRVCDSCHTL [K3H], which abundance fitness is on record?
Answer: Its abundance fitness is -0.42 ± 0.089.

Question: For WLADDEATHCRQCEKEFSISRRKHHCRNCGHIFCNTCSSNELALPSYPKPVRVCDSCHTL [K3A], which abundance fitness is on record?
Answer: Its abundance fitness is -0.602 ± 0.066.

Question: With WLLDDEATHCRQCEKEFSISRRKHHCRNCGHIFCNTCSSNELALPSYPKPVRVCDSCHTL [K3L] as the variant, how does the abundance fitness read?
Answer: The abundance fitness was -0.607 ± 0.061.

Question: For WLCDDEATHCRQCEKEFSISRRKHHCRNCGHIFCNTCSSNELALPSYPKPVRVCDSCHTL [K3C], which abundance fitness is on record?
Answer: The abundance fitness was -1.03 ± 0.12.

Question: With WLYDDEATHCRQCEKEFSISRRKHHCRNCGHIFCNTCSSNELALPSYPKPVRVCDSCHTL [K3Y] as the variant, how does the abundance fitness read?
Answer: Its abundance fitness is -0.529 ± 0.081.

Question: For WLEDDEATHCRQCEKEFSISRRKHHCRNCGHIFCNTCSSNELALPSYPKPVRVCDSCHTL [K3E], which abundance fitness is on record?
Answer: Its abundance fitness is -0.475 ± 0.061.

Question: With WLNDDEATHCRQCEKEFSISRRKHHCRNCGHIFCNTCSSNELALPSYPKPVRVCDSCHTL [K3N] as the variant, how does the abundance fitness read?
Answer: The abundance fitness was -0.133 ± 0.052.

Question: Which abundance fitness does the source give for WLFDDEATHCRQCEKEFSISRRKHHCRNCGHIFCNTCSSNELALPSYPKPVRVCDSCHTL [K3F] here?
Answer: The abundance fitness was -1.14 ± 0.16.

Question: For WLSDDEATHCRQCEKEFSISRRKHHCRNCGHIFCNTCSSNELALPSYPKPVRVCDSCHTL [K3S], which abundance fitness is on record?
Answer: The abundance fitness was -0.55 ± 0.057.

Question: With WLQDDEATHCRQCEKEFSISRRKHHCRNCGHIFCNTCSSNELALPSYPKPVRVCDSCHTL [K3Q] as the variant, how does the abundance fitness read?
Answer: Its abundance fitness is -0.664 ± 0.095.

Question: For WLMDDEATHCRQCEKEFSISRRKHHCRNCGHIFCNTCSSNELALPSYPKPVRVCDSCHTL [K3M], which abundance fitness is on record?
Answer: Its abundance fitness is -0.431 ± 0.073.

Question: With WLPDDEATHCRQCEKEFSISRRKHHCRNCGHIFCNTCSSNELALPSYPKPVRVCDSCHTL [K3P] as the variant, how does the abundance fitness read?
Answer: Its abundance fitness is -0.906 ± 0.11.

Question: For WRKDDEATHCRQCEKEFSISRRKHHCRNCGHIFCNTCSSNELALPSYPKPVRVCDSCHTL [L2R], which abundance fitness is on record?
Answer: Its abundance fitness is -0.393 ± 0.07.

Question: For WWKDDEATHCRQCEKEFSISRRKHHCRNCGHIFCNTCSSNELALPSYPKPVRVCDSCHTL [L2W], which abundance fitness is on record?
Answer: The abundance fitness was -0.329 ± 0.066.

Question: With WVKDDEATHCRQCEKEFSISRRKHHCRNCGHIFCNTCSSNELALPSYPKPVRVCDSCHTL [L2V] as the variant, how does the abundance fitness read?
Answer: The abundance fitness was -0.044 ± 0.064.

Question: Which abundance fitness does the source give for WCKDDEATHCRQCEKEFSISRRKHHCRNCGHIFCNTCSSNELALPSYPKPVRVCDSCHTL [L2C] here?
Answer: The abundance fitness was -0.327 ± 0.069.

Question: With WMKDDEATHCRQCEKEFSISRRKHHCRNCGHIFCNTCSSNELALPSYPKPVRVCDSCHTL [L2M] as the variant, how does the abundance fitness read?
Answer: The abundance fitness was -0.074 ± 0.065.

Question: For WPKDDEATHCRQCEKEFSISRRKHHCRNCGHIFCNTCSSNELALPSYPKPVRVCDSCHTL [L2P], which abundance fitness is on record?
Answer: Its abundance fitness is -1.13 ± 0.17.

Question: Which abundance fitness does the source give for WIKDDEATHCRQCEKEFSISRRKHHCRNCGHIFCNTCSSNELALPSYPKPVRVCDSCHTL [L2I] here?
Answer: The abundance fitness was -0.104 ± 0.1.

Question: For WHKDDEATHCRQCEKEFSISRRKHHCRNCGHIFCNTCSSNELALPSYPKPVRVCDSCHTL [L2H], which abundance fitness is on record?
Answer: Its abundance fitness is -0.211 ± 0.095.

Question: For WAKDDEATHCRQCEKEFSISRRKHHCRNCGHIFCNTCSSNELALPSYPKPVRVCDSCHTL [L2A], which abundance fitness is on record?
Answer: The abundance fitness was 0.01 ± 0.077.

Question: Which abundance fitness does the source give for WGKDDEATHCRQCEKEFSISRRKHHCRNCGHIFCNTCSSNELALPSYPKPVRVCDSCHTL [L2G] here?
Answer: The abundance fitness was -0.074 ± 0.12.

Question: With WYKDDEATHCRQCEKEFSISRRKHHCRNCGHIFCNTCSSNELALPSYPKPVRVCDSCHTL [L2Y] as the variant, how does the abundance fitness read?
Answer: Its abundance fitness is 0.058 ± 0.057.

Question: With WFKDDEATHCRQCEKEFSISRRKHHCRNCGHIFCNTCSSNELALPSYPKPVRVCDSCHTL [L2F] as the variant, how does the abundance fitness read?
Answer: The abundance fitness was -0.061 ± 0.043.

Question: For WKKDDEATHCRQCEKEFSISRRKHHCRNCGHIFCNTCSSNELALPSYPKPVRVCDSCHTL [L2K], which abundance fitness is on record?
Answer: Its abundance fitness is 0.102 ± 0.071.

Question: Which abundance fitness does the source give for WDKDDEATHCRQCEKEFSISRRKHHCRNCGHIFCNTCSSNELALPSYPKPVRVCDSCHTL [L2D] here?
Answer: Its abundance fitness is -0.006 ± 0.093.

Question: Which abundance fitness does the source give for WTKDDEATHCRQCEKEFSISRRKHHCRNCGHIFCNTCSSNELALPSYPKPVRVCDSCHTL [L2T] here?
Answer: The abundance fitness was -0.02 ± 0.066.

Question: For WQKDDEATHCRQCEKEFSISRRKHHCRNCGHIFCNTCSSNELALPSYPKPVRVCDSCHTL [L2Q], which abundance fitness is on record?
Answer: Its abundance fitness is -0.023 ± 0.076.

From the Human Domainome abundance scans (Beltran et al. 2025)
